Source: the supplement of paper PMC9170038

Columns and labels:
MS2 coat protein [1] = test: apparent KD of MS2 coat protein, switch OFF state (with FMN for OFF switches, without FMN for ON switches); designed switch direction (-1 OFF switch, 1 ON switch): -1; higher = weaker reporter binding; conditions: FMN input: 0 or 200 uM; Eterna round: R93 (includes R88 designs)
Outline: (§1)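 Apparent KD was obtained for each design as the median of normalised binding-curve fits over its clusters. RNA switches transcribed on-chip from Illumina sequencing clusters were titrated with SNAP-549-labelled MS2 coat protein (twofold steps, 0.7 or 1.5 nM to 3 µM) in 100 mM Tris-HCl pH 7.5, 80 mM KCl, 4 mM MgCl2, without or with constant ligand.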

MS2 coat protein [2] = test: apparent KD of MS2 coat protein, switch ON state; designed switch direction (-1 OFF switch, 1 ON switch): -1; higher = weaker reporter binding; conditions: FMN input: 0 or 200 uM; Eterna round: R93 (includes R88 designs)
Outline: as §1

Sequence: AACAUGUCAGGAUAUUAAAGAAAAGAAAAGAAAGAAAAGAAUAAGAAGGGACAUGAGGAUCACCCAUGUAAGAA [EteRNA is fun!]
- apparent KD of MS2 coat protein (MS2 coat protein [1]): 37 nM
- apparent KD of MS2 coat protein (MS2 coat protein [2]): 72.1 nM

Sequence: UAAAGACAUGAGGAUCACCCAUGUGAGGAUAUCGGUGACUAUAAAAAAAAAUAGUCACCGAGAAGGCACAGAAA [JR_Exc001_Sub301]
- apparent KD of MS2 coat protein (MS2 coat protein [1]): 117 nM
- apparent KD of MS2 coat protein (MS2 coat protein [2]): 43.2 nM

Sequence: AACAGUACAGGAUAUACAUGAGGAUCACCCAUGUGAAGAUUAAGUGGAGUACCACAAAGUAGAAGGGUACUGGA [Ruby 89]
- apparent KD of MS2 coat protein (MS2 coat protein [1]): 101 nM
- apparent KD of MS2 coat protein (MS2 coat protein [2]): 28.1 nM

Sequence: AAGGUACGAGGAUAUACAUAGAUACAGACACAUGUACAUGUACAUGAGGAUCACCCAUGUAGAAGGCGUAUAUA [AJ 19]
- apparent KD of MS2 coat protein (MS2 coat protein [1]): 69.7 nM
- apparent KD of MS2 coat protein (MS2 coat protein [2]): 86.1 nM

Sequence: AACAGUACAGGAUAUACAUGAGGAUCACCCAUGUGAGUUUUAAAAGGCGUACCUAAAAGUAGAAGGGUACUGGA [JL Maslow Revisted mod 20]
- apparent KD of MS2 coat protein (MS2 coat protein [1]): 44.2 nM
- apparent KD of MS2 coat protein (MS2 coat protein [2]): 24.3 nM

Sequence: AACAUGUCAGGAUAUGUAGUAAAAAGUGAUCCUCAUAAACUACAGAAGGGACAUGAGGAUCACCCAUGUAAAAA [Ex4: 930]
- apparent KD of MS2 coat protein (MS2 coat protein [1]): 21.3 nM
- apparent KD of MS2 coat protein (MS2 coat protein [2]): 27.9 nM

Sequence: CUCAAGUGAGGAUAUAAAAGAAAAGAAGAGAAAGAAAAGAAUUAGAAGGCACAUGAGGAUCACCCAUGUAAGAA [EteRNA is fun!]
- apparent KD of MS2 coat protein (MS2 coat protein [1]): 25.5 nM
- apparent KD of MS2 coat protein (MS2 coat protein [2]): 39.4 nM

Sequence: AAACCACAUGAGGAUCACCCAUGUAAGGAUAUGAACGAAAAUAAAUAAAAAUAAAAGUUCAGAAGGUACAAAAA [66%, Wbt, 22]
- apparent KD of MS2 coat protein (MS2 coat protein [1]): 24.3 nM
- apparent KD of MS2 coat protein (MS2 coat protein [2]): 26.3 nM

Sequence: UAAAAACAUGAGGAUCACCCAUGUCAGGAUAUGUGCUUAAUAAAAAAAUAAAUAACAAGCAGAAGGGACAAUAA [JR_Exc001_Sub201]
- apparent KD of MS2 coat protein (MS2 coat protein [1]): 34.4 nM
- apparent KD of MS2 coat protein (MS2 coat protein [2]): 35 nM

Sequence: AGCUAGUCAGGAUAUACGAACAUGUCAAAAGACGAGAAGGGACAUGAGGAUCACCCAUGUAGAAGGGACUAGCA [Diamond 21]
- apparent KD of MS2 coat protein (MS2 coat protein [1]): 198 nM
- apparent KD of MS2 coat protein (MS2 coat protein [2]): 87.5 nM

Sequence: AAAAAACAUGAGGAUCACCCAUGUCAGGAUAUGCUCAGCAAUAUUCCAAUAAAGAACGGUAGAAGGGACAGGAA [Bilbo Confounded 24 - Jieux - Exclusion 1]
- apparent KD of MS2 coat protein (MS2 coat protein [1]): 26.6 nM
- apparent KD of MS2 coat protein (MS2 coat protein [2]): 24.9 nM

Sequence: AGGUAGUCAGGAUAUACAAACAUGUCAAAAGACGUGAAAAAACAUGAGGAUCACCCAUGUAGAAGGGACUACCA [Mat - Exclusion 2 - JL mod - D21]
- apparent KD of MS2 coat protein (MS2 coat protein [1]): 16.3 nM
- apparent KD of MS2 coat protein (MS2 coat protein [2]): 18 nM

Sequence: AGUUGGCGAGGAUAUACAUGAGGAUCACCCAUGUGAGAGAAAAAAGUGAGAAAGAAAAGUAGAAGGCGCUCACA [JL Lego Mod 12]
- apparent KD of MS2 coat protein (MS2 coat protein [1]): 49.7 nM
- apparent KD of MS2 coat protein (MS2 coat protein [2]): 62.1 nM

Sequence: AAAAAACAUGAGGAUCACCCAUGUCAGGAUAUGCGAAGCAAAAAAAAAAAAAAGCGAAGUAGAAGGGACUAAAA [Exclusion1 Malc#6]
- apparent KD of MS2 coat protein (MS2 coat protein [1]): 40.1 nM
- apparent KD of MS2 coat protein (MS2 coat protein [2]): 24.4 nM

Sequence: CAGUACUGAGGAUAUACAUGAGGAUCACCCAUGUGAAAAAGCUACGAAAGUAGCACAUGUAGAAGGCAGUACUG [Ex3: 807]
- apparent KD of MS2 coat protein (MS2 coat protein [1]): 281 nM
- apparent KD of MS2 coat protein (MS2 coat protein [2]): 319 nM

Sequence: CGCAAGUCAGGAUAUUCGACAAGUAAAUCAGUAGAUCAGAAGAAGAAGGGACAUGAGGAUCACCCAUGUAAGUA [JR_Exc004_Sub404]
- apparent KD of MS2 coat protein (MS2 coat protein [1]): 26.3 nM
- apparent KD of MS2 coat protein (MS2 coat protein [2]): 29.1 nM

Sequence: AAGCUGGUAGGAUAUACUAGGGCAACUAAUGCACCGAUAGGACAUGAGGAUCACCCAUGUAGAAGGGCCAGAAA [JR_Exc002_Sub404]
- apparent KD of MS2 coat protein (MS2 coat protein [1]): 137 nM
- apparent KD of MS2 coat protein (MS2 coat protein [2]): 65.5 nM

Sequence: AAGAAACAUGAGGAUCACCCAUGUGAGGAUAUAGAAAAGAAAAGAAAAGAAAGAAGAACUAGAAGGCACAAAGG [Neferkare (IV) Khendu]
- apparent KD of MS2 coat protein (MS2 coat protein [1]): 28.8 nM
- apparent KD of MS2 coat protein (MS2 coat protein [2]): 31.1 nM

Sequence: AAAAAGGGAGGAUAUACGAAAUAGGGAAACCUAAAAAAGGGACAUGAGGAUCACCCAUGUAGAAGGCCCAAGAA [Clint Eastwood 64% 6]
- apparent KD of MS2 coat protein (MS2 coat protein [1]): 223 nM
- apparent KD of MS2 coat protein (MS2 coat protein [2]): 39 nM

Sequence: AAAAAACAUGAGGAUCACCCAUGUAAGGAUAUGCUGAAAAACACGGAAAAAACGUGCAGCAGAAGGUACAAAGA [Mat - Exclusion 1 - Eli mod - D96]
- apparent KD of MS2 coat protein (MS2 coat protein [1]): 39.9 nM
- apparent KD of MS2 coat protein (MS2 coat protein [2]): 18.3 nM

Sequence: AAGAACGCAGGAUAUACAAAAUAAAAGAAAAGAAAGAAAGAACAUGAGGAUCACCCAUGUAGAAGGGCGAAGAA [Sewadjkare]
- apparent KD of MS2 coat protein (MS2 coat protein [1]): 49.5 nM
- apparent KD of MS2 coat protein (MS2 coat protein [2]): 52.2 nM

Sequence: AAAGAUACAGGAUAUACAUGAGGAUCACCCAUGUGGAACCAAAAAUGGGAAAAAGAAAGUAGAAGGGUAUAAAA [Ex 3 May 37]
- apparent KD of MS2 coat protein (MS2 coat protein [1]): 35.7 nM
- apparent KD of MS2 coat protein (MS2 coat protein [2]): 38.8 nM

Sequence: AAAAAGCGAGGAUAUACUAAAAAACCUCAAAAAAAAAAAAAACAUGAGGAUCACCCAUGUAGAAGGCGCAAAAA [JR_Exc002_Sub001]
- apparent KD of MS2 coat protein (MS2 coat protein [1]): 113 nM
- apparent KD of MS2 coat protein (MS2 coat protein [2]): 86.1 nM
